Laboratory results from patent US20200048328A1 (Bristol-Myers Squibb, published 2020).

What was measured:
rhesus serum albumin [1] = biological target: T1, rhesus serum albumin (rhesus, UniProt Q28522 17-600); experiment: direct binding ELISA, albumin coated
T1 construct: also called RhSA; Rh-SA
Description: (§1) Cross-species albumin binding was determined using the ELISA method described above.

mouse serum albumin [2] = biological target: T2, mouse serum albumin (mouse, UniProt P07724 25-608); experiment: direct binding ELISA, albumin coated
T2 construct: also called MSA; MuSA
Description: as §1

human serum albumin [3] = biological target: T3, human serum albumin (human, UniProt P02768 25-609); experiment: direct binding ELISA, albumin coated
T3 construct: immobilized on chips or coated on plates elsewhere; also called HSA; HuSA
Description: as §1

mouse serum albumin [4] = biological target: T2, mouse serum albumin; experiment: SPR, albumin immobilized, acetate pH 7.4; acetate pH 7.4, MuSA
rhesus serum albumin [5] = biological target: T1, rhesus serum albumin; experiment: SPR, albumin immobilized, acetate pH 7.4
human serum albumin [6] = biological target: T3, human serum albumin; experiment: SPR, albumin immobilized, acetate pH 7.4
rhesus serum albumin [7] = biological target: T1, rhesus serum albumin; experiment: SPR, albumin immobilized, HBSP pH 7.4
mouse serum albumin [8] = biological target: T2, mouse serum albumin; experiment: SPR, albumin immobilized, HBSP pH 7.4
human serum albumin [9] = biological target: T3, human serum albumin; experiment: SPR, albumin immobilized, HBSP pH 7.4
rhesus serum albumin [10] = biological target: T1, rhesus serum albumin; experiment: SPR, albumin immobilized
Description: (§2) To determine the kinetics of binding to human, rhesus, and mouse serum albumin, as well as whether binding was retained at both physiological and endosomal pHs, the respective serum albumins were immobilized on a Biacore CMS chip to a surface density of ˜1200 RU using standard NHS/EDC coupling. […] Kinetic measurements were carried out using a 3 min association and 6-10 min dissociation phase. Kinetic traces of reference-subtracted sensorgrams were fit to a 1:1 binding model using the Biaevaluation software.

mouse serum albumin [11] = biological target: T2, mouse serum albumin; experiment: SPR, albumin immobilized
Description: as §2

human serum albumin [12] = biological target: T3, human serum albumin; experiment: SPR, albumin immobilized
Description: as §2

rhesus serum albumin [13] = biological target: T1, rhesus serum albumin; experiment: SPR, albumin immobilized; remark: listed apart in the source
Description: as §2
(§3) In addition, binding to albumin was carried out under various pH conditions ranging from pH 5.5 to pH 7.4.

cynomolgus serum albumin = biological target: T4, cynomolgus serum albumin (cynomolgus, UniProt A2V9Z4 25-608); experiment: SPR, albumin immobilized;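 further: biacore CM5 surface plasmon resonance with serum albumin coupled to the chip, 3 min association then 6-10 min dissociation, rates from a 1:1 model fit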
T4 construct: also called cynoSA; CySA
Description: as §2, §3

rat serum albumin [14] = biological target: T5, rat serum albumin (rat, UniProt P02770 25-608); experiment: SPR, albumin immobilized;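 further: biacore CM5 surface plasmon resonance with serum albumin coupled to the chip, 3 min association then 6-10 min dissociation, rates from a 1:1 model fit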
T5 construct: also called Rat SA; RSA
Description: as §2, §3

mouse serum albumin [15] = biological target: T2, mouse serum albumin; experiment: SPR, albumin immobilized; remark: listed apart in the source
Description: as §2, §3

human serum albumin [16] = biological target: T3, human serum albumin; experiment: SPR, albumin immobilized; remark: listed apart in the source
Description: as §2, §3

domain III of HSA = biological target: T6, domain III of HSA (human, UniProt P02768 405-609, limits assumed); experiment: SPR on HSA domains
T6 construct: domain: III; also called HuSA domainIII

domain I of HSA = biological target: T7, domain I of HSA (human, UniProt P02768 25-221, limits assumed); experiment: SPR on HSA domains
T7 construct: domain: I; also called HSA domain I

human serum albumin [17] = biological target: T3, human serum albumin; experiment: direct binding ELISA on coated HSA, mono-Adnectin (column HSA EC50 (nM))
rhesus serum albumin [18] = biological target: T1, rhesus serum albumin; experiment: SPR, albumin immobilized, acetate pH 5.5
mouse serum albumin [19] = biological target: T2, mouse serum albumin; experiment: SPR, albumin immobilized, acetate pH 5.5
human serum albumin [20] = biological target: T3, human serum albumin; experiment: SPR, albumin immobilized, acetate pH 5.5
rhesus serum albumin [21] = biological target: T1, rhesus serum albumin; experiment: SPR, albumin immobilized, HBSP pH 7.4; remark: listed apart in the source
mouse serum albumin [22] = biological target: T2, mouse serum albumin; experiment: SPR, albumin immobilized, HBSP pH 7.4; remark: listed apart in the source
human serum albumin [23] = biological target: T3, human serum albumin; experiment: SPR, albumin immobilized, HBSP pH 7.4; remark: listed apart in the source
rhesus serum albumin [24] = biological target: T1, rhesus serum albumin; experiment: SPR, albumin immobilized, Adnectin 250 nM
rat serum albumin [25] = biological target: T5, rat serum albumin; experiment: SPR, albumin immobilized, Adnectin 250 nM
mouse serum albumin [26] = biological target: T2, mouse serum albumin; experiment: SPR, albumin immobilized, Adnectin 250 nM
human serum albumin [27] = biological target: T3, human serum albumin; experiment: SPR, albumin immobilized, Adnectin 250 nM

T5 sequence (P02770 25-608 limits assumed): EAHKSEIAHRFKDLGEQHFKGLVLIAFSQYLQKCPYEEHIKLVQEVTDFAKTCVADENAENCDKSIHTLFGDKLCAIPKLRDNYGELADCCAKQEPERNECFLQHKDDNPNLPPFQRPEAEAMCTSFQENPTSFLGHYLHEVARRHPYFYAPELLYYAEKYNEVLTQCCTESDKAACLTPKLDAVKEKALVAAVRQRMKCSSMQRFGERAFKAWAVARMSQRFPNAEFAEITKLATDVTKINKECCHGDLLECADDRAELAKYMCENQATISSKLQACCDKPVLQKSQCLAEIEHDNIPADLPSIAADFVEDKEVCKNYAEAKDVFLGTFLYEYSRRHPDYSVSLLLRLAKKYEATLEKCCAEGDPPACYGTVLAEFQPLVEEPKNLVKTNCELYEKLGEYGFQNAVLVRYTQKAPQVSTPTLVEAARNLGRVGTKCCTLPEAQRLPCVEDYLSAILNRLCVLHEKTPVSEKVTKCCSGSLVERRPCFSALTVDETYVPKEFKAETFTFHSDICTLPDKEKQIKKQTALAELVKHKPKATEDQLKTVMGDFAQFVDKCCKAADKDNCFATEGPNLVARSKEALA
T2 sequence (P07724 25-608 limits assumed): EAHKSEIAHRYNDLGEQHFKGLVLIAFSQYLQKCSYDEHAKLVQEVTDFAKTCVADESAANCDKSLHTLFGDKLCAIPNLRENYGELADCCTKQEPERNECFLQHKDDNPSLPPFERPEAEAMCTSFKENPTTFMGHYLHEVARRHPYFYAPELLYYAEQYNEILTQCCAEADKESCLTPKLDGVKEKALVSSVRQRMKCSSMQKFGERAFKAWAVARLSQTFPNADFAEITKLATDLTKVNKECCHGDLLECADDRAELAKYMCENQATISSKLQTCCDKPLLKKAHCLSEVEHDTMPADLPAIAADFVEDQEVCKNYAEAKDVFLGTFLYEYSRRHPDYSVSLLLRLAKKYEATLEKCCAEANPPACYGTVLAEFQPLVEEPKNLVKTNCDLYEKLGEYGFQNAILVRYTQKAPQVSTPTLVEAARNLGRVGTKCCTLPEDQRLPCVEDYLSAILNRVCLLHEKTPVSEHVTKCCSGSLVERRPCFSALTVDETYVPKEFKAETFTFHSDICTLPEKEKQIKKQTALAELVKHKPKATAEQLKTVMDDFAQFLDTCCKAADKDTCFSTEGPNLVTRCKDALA
T4 sequence (A2V9Z4 25-608 limits assumed): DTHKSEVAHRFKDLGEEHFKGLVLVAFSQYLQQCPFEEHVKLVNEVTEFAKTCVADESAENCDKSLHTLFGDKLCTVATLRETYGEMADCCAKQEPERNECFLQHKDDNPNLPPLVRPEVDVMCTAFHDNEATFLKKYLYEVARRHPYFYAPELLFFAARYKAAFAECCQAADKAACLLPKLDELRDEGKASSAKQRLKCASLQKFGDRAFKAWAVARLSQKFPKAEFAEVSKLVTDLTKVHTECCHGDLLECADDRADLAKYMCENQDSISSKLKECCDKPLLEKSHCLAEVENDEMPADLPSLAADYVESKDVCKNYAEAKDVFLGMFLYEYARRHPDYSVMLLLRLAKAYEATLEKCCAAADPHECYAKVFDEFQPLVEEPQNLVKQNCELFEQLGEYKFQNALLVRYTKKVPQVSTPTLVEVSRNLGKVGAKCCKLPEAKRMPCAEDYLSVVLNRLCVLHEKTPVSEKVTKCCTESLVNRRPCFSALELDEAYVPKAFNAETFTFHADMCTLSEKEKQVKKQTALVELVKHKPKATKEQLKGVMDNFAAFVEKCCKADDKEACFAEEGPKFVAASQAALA
T1 sequence (Q28522 17-600 limits assumed): as the sequence (A2V9Z4 25-608 limits assumed) above

B1: PKE2 Adnectin 2629_E06 (designed binder)
chain: MGVSDVPRDLEVVAATPTSLLISWDAPAVTVRYYRITYGREVQKYSDLGPLYIYQEFTVPGSKSTATISGLKPGVDYTITVYAVTGSGESPASSKPISINYRTEIDKPSQHHHHHH
notes: 10Fn3 domain with modified CD loop; the entry includes the His6 tail; also called ADX_2629_E06
EC50 (rhesus serum albumin [1]): 10.5 nM | EC50 (mouse serum albumin [2]): 2.8 nM | EC50 (human serum albumin [3]): 14.5 nM | kon (mouse serum albumin [4]): ~76800 M⁻¹ s⁻¹ | Kd (rhesus serum albumin [5]): 11.8 nM | koff (rhesus serum albumin [5]): 0.000328 s⁻¹ | kon (rhesus serum albumin [5]): 27900 M⁻¹ s⁻¹ | Kd (human serum albumin [6]): 9.74 nM | koff (human serum albumin [6]): 0.000272 s⁻¹ | kon (human serum albumin [6]): 28000 M⁻¹ s⁻¹ | Kd (rhesus serum albumin [7]): 12.7 nM | koff (rhesus serum albumin [7]): 0.000276 s⁻¹ | kon (rhesus serum albumin [7]): 21800 M⁻¹ s⁻¹ | Kd (mouse serum albumin [8]): 3.43 nM | koff (mouse serum albumin [8]): 0.000272 s⁻¹ | kon (mouse serum albumin [8]): 79100 M⁻¹ s⁻¹ | Kd (human serum albumin [9]): 10.6 nM | koff (human serum albumin [9]): 0.000219 s⁻¹ | kon (human serum albumin [9]): 20700 M⁻¹ s⁻¹ | Kd (rhesus serum albumin [10]): 14.5 nM | koff (rhesus serum albumin [10]): 0.000283 s⁻¹ | kon (rhesus serum albumin [10]): 19500 M⁻¹ s⁻¹ | Kd (mouse serum albumin [11]): 3.6 nM | koff (mouse serum albumin [11]): 0.000242 s⁻¹ | kon (mouse serum albumin [11]): 68400 M⁻¹ s⁻¹ | Kd (human serum albumin [12]): 12.3 nM | koff (human serum albumin [12]): 0.000213 s⁻¹ | kon (human serum albumin [12]): 17400 M⁻¹ s⁻¹ | Kd (rhesus serum albumin [13]): 3.4 nM | koff (rhesus serum albumin [13]): 0.00024 s⁻¹ | kon (rhesus serum albumin [13]): 73900 M⁻¹ s⁻¹ | Kd (cynomolgus serum albumin): 3.2 nM | koff (cynomolgus serum albumin): 0.000229 s⁻¹ | kon (cynomolgus serum albumin): 73700 M⁻¹ s⁻¹ | Kd (rat serum albumin [14]): 12.8 nM | koff (rat serum albumin [14]): 0.00126 s⁻¹ | kon (rat serum albumin [14]): 99700 M⁻¹ s⁻¹ | Kd (mouse serum albumin [15]): 2.4 nM | koff (mouse serum albumin [15]): 0.000531 s⁻¹ | kon (mouse serum albumin [15]): 219000 M⁻¹ s⁻¹ | Kd (human serum albumin [16]): 3.2 nM | koff (human serum albumin [16]): 0.000185 s⁻¹ | kon (human serum albumin [16]): 61000 M⁻¹ s⁻¹ | binding result (domain III of HSA): no binding | binding result (domain I of HSA): no binding | EC50 (human serum albumin [17]): 20 nM | Kd (rhesus serum albumin [18]): 11.2 nM | koff (rhesus serum albumin [18]): 0.000503 s⁻¹ | kon (rhesus serum albumin [18]): 44900 M⁻¹ s⁻¹ | Kd (mouse serum albumin [19]): 14.6 nM | koff (mouse serum albumin [19]): 0.00113 s⁻¹ | kon (mouse serum albumin [19]): 77000 M⁻¹ s⁻¹ | Kd (human serum albumin [20]): 4.1 nM | koff (human serum albumin [20]): 0.000287 s⁻¹ | kon (human serum albumin [20]): 70700 M⁻¹ s⁻¹ | Kd (rhesus serum albumin [21]): 11.4 nM | koff (rhesus serum albumin [21]): 0.000267 s⁻¹ | kon (rhesus serum albumin [21]): 23500 M⁻¹ s⁻¹ | Kd (mouse serum albumin [22]): 3.3 nM | koff (mouse serum albumin [22]): 0.000262 s⁻¹ | kon (mouse serum albumin [22]): 79600 M⁻¹ s⁻¹ | Kd (human serum albumin [23]): 10.7 nM | koff (human serum albumin [23]): 0.000192 s⁻¹ | kon (human serum albumin [23]): 17900 M⁻¹ s⁻¹ | koff (rhesus serum albumin [24]): 0.000219 s⁻¹ | koff (rat serum albumin [25]): 0.000767 s⁻¹ | koff (mouse serum albumin [26]): 0.000401 s⁻¹ | koff (human serum albumin [27]): 0.000169 s⁻¹
